B1: Myosin-1 (Saccharomyces cerevisiae), P08964 (parent)
chain: MTGGQSCSSNMIVWIPDEKEVFVKGELMSTDINKNKFTGQEEQIGIVHPLDSTEVSNLVQVRISDVFPVNPSTFDKVENMSELTHLNEPSVLYNLEKRYDCDLIYTYSGLFLVAINPYHNLNLYSEDHINLYHNKHNRLSKSRLDENSHEKLPPHIFAIAEEAYENLLSEGKDQSILVTGESGAGKTENTKKILQYLASITSGSPSNIAPVSGSSIVESFEMKILQSNPILESFGNAQTVRNNNSSRFGKFIKIEFNEHGMINGAHIEWYLLEKSRIVHQNSKERNYHIFYQLLSGLDDSELKNLRLKSRNVKDYKILSNSNQDIIPGINDVENFKELLSALNIIGFSKDQIRWIFQVVAIILLIGNIEFVSDRAEQASFKNDVSAICSNLGVDEKDFQTAILRPRSKAGKEWVSQSKNSQQAKFILNALSRNLYERLFGYIVDMINKNLDHGSATLNYIGLLDIAGFEIFENNSFEQLCINYTNEKLQQFFNNHMFVLEQSEYLKENIQWDYIDYGKDLQLTIDLIESKGPPTGVLPLLDEEAVLPKSTDESFYSKLISTWDQNSSKFKRSRLKNGFILKHYAGDVEYTVEGWLSKNKDPLNDNLLSLLSSSQNDIISKLFQPEGEKSSSAGVEANISNQEVKKSARTSTFKTTSSRHREQQITLLNQLASTHPHFVRCIIPNNVKKVKTFNRRLILDQLRCNGVLEGIRLAREGYPNRIAFQEFFQRYRILYPENSTTTTFSSKLKASTKQNCEFLLTSLQLDTKVYKIGNTKLFFKAGVLADLEKQKDVKLNNIMIKLTATIRGYTVRKEITYHLQKLKKTRVIGNTFRLYNRLVKEDPWFNLFIRIKPLLTSSNDMTRTKKFNEQINKLKNDLQEMESKKKFLEEKNQKTVNELENTQDLLNQEKENLRKNESLLNRVKTSSETLQKQFDDLVSEKDEISREKLEVAQNLEEAHQKIQGLQETIREREATLEKLHSKNNELIKQISDLNCDISKEQSSQSLIKESKLKLENEIKRLKDVINSKEEEIKSFNDKLSSSEEDLDIKLVTLEKNCNIAMSRLQSLVTENSDLRSKNENFKKEKAALNNQLKNKESELLKMKEKIDNHKKELATFSKQRDDAVSEHGKITAELKETRIQLTEYKSNYQKIKEEYSNFQRETKEQEQKKRNSLVESLNDSKIKELEARLSQEISLNQYLNKRISGNSVETNISSTRRSTSYSDDPLDKEDIIKKYYDLQLAFTEITRNLENEIEEKKNLISRLRFTETRLASSSFEDQKIKAQMKKLKKLIQDMDPSIPLDSILNEPLDNCPDKESDINKLMLEVDYLKRQLDIETRAHYDAENAISALHSKFRKIQGESSLSSSDIYKLKFEASEERVKSLEDKLKTMPLRDRTNLPVGDIIKNRDSISKYEEEIRYYKLENYKLQEILNESNGKLSQLTLDLRQSKSKEALLSEQLDRLQKDLESTERQKELLSSTIKQQKQQFENCMDDLQGNELRLREHIHALKQAEEDVKNMASIIEKLKTQNKQKEKLIWEREMERNDSDMQLQETLLELKRVQDVKKILSDDLAHLKERLSAVEDRSQYTDEINRLKEELNCSLKAETNLKKEFATLKYKLETSTNDSEAKISDLLKQLDHYTKVVEMLNNEKDAISLAEKELYQKYEALNTECESLKGKIVSLTKIKQELESDLNQKTDALQISNAALSSSTQKNKEITEKIKYLEETLQLQMEQNSRNGELVKTLQASCNGYKDKFDDEKQKNIDLYEENQTLQKLNTDLQLQLKNLHERLSDTTEKNAWLSKIHELENMVSLETDLKYEEMKKNKSLERAVEELQTKNSQQTDVIELANKNRSEFEEATLKYEAQISDLEKYISQQELEMKKSIRDNSSYRDKVQEMAQEIEFWKSRYESTMIGSKNIDSNNAQSKIFS
partner: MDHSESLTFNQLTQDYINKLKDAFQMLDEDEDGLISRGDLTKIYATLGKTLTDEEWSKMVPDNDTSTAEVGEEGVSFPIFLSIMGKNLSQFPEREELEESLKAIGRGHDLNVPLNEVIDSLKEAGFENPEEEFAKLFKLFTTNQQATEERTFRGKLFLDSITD
B2: Myosin light chain 1 (Saccharomyces cerevisiae), P53141 (parent)
chain: MSATRANKDIFTLFDKKGQGAIAKDSLGDYLRAIGYNPTNQLVQDIINADSSLRDASSLTLDQITGLIEVNEKELDATTKAKTEDFVKAFQVFDKESTGKVSVGDLRYMLTGLGEKLTDAEVDELLKGVEVDSNGEIDYKKFIEDVLRQ
partner: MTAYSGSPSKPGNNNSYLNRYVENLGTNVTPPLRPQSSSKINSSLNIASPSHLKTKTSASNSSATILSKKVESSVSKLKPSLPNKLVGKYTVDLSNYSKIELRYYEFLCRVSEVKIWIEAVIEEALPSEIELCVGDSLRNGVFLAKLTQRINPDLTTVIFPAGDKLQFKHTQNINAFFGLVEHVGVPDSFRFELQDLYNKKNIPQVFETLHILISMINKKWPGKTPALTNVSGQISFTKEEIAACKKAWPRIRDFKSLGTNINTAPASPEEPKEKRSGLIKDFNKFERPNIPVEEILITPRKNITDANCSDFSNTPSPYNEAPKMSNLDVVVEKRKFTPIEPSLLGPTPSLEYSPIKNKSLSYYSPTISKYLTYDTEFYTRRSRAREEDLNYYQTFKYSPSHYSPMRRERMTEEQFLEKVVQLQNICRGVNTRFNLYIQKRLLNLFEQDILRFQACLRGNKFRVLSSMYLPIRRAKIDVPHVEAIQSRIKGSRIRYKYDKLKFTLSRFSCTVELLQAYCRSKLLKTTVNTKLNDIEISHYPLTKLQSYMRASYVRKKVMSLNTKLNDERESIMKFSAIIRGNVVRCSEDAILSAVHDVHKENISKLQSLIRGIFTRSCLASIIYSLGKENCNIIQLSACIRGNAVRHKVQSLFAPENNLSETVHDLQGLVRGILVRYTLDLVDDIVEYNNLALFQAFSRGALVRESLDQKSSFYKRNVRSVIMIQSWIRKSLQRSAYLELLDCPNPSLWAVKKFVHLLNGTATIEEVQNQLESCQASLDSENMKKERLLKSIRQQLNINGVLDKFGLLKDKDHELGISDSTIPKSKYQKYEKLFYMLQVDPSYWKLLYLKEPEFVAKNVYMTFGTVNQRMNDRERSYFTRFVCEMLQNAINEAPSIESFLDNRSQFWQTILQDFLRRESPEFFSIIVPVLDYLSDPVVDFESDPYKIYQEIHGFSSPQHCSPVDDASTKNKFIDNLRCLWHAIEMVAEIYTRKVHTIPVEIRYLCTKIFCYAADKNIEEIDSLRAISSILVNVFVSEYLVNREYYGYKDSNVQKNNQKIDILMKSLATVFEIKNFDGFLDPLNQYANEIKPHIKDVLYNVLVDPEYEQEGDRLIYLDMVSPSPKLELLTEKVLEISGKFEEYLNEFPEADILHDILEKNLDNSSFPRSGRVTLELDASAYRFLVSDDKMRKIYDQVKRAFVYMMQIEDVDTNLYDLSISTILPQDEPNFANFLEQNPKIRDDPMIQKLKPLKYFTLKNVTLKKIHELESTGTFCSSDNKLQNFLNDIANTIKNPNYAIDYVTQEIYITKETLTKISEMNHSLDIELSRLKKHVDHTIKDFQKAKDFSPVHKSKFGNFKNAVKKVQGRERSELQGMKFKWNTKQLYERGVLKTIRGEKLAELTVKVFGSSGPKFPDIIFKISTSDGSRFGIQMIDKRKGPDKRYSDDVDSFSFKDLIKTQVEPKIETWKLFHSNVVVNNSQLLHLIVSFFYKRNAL
B3: Myosin light chain 1 (Saccharomyces cerevisiae), P53141 (parent)
chain: B2 chain

Variants of: B1
Details: with mlc2_yeast MLC2, Q06580

Variant	effect of a mutation on the interaction
R806A	with no effect

Variants of: B2
Details: with iqg1_yeast IQG1, Q12280

Variant	effect of a mutation on the interaction
G114D	disrupting interaction strength
G135E	with no effect

Variants of: B3
Details: with myo2_yeast MYO2, P19524
myo2_yeast MYO2, P19524, sequence (P19524 whole entry): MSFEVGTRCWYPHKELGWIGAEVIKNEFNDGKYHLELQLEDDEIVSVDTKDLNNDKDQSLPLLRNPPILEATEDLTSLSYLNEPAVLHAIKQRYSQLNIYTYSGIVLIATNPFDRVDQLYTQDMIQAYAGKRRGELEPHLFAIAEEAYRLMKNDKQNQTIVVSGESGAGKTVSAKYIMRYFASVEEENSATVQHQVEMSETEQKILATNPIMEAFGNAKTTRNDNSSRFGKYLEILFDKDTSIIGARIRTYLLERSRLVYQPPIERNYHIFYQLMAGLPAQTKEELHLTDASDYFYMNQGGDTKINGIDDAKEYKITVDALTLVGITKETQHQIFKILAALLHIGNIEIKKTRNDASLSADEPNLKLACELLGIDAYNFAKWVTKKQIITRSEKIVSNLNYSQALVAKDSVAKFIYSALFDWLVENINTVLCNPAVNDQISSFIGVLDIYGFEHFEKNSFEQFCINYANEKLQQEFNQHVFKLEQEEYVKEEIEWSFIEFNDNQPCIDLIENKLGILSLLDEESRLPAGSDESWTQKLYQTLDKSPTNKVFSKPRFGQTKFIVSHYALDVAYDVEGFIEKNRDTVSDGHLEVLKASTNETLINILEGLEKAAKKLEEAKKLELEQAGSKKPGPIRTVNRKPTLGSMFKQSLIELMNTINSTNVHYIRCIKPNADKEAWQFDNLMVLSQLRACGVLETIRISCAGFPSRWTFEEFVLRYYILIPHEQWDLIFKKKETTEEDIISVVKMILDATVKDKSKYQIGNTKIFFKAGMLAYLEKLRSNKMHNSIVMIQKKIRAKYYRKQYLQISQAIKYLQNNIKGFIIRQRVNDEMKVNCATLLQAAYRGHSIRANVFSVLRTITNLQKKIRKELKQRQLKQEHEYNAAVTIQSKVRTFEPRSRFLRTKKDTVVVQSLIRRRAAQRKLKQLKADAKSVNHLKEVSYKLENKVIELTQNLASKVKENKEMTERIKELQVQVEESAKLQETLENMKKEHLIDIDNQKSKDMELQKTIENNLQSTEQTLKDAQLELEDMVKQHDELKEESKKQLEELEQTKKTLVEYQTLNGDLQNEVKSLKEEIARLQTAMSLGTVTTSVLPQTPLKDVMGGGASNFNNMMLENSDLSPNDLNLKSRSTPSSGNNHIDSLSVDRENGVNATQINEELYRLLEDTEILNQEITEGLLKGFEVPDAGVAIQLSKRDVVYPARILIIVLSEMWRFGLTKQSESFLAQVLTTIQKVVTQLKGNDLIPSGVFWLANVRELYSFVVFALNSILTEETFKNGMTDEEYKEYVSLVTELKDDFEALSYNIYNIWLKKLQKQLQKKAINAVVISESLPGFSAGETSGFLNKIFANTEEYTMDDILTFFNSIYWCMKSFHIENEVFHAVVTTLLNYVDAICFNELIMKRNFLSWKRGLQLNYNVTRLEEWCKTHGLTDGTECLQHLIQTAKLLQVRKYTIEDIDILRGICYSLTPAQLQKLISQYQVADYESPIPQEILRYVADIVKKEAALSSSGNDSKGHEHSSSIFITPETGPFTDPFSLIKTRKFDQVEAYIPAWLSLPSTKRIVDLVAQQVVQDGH

Variant	effect of a mutation on the interaction
G135E	with no effect
G114D	disrupting interaction strength

Variants of: B3
Details: with myo1_yeast MYO1, P08964

Variant	effect of a mutation on the interaction
G135E	decreasing interaction strength
G114D	decreasing interaction strength
